Results as given in US12269859B2, “Synthetic immune receptors and methods of use thereof” (Angeles Therapeutics, Inc., priority 2016, dated 2025).

B1: 030217-J05 (protein)
chain: MALPVTALLLPLALLLHAARPDEIVLTQSPATLSLSPGERATLSCSASSSVSYMHWYQQKPGQAPRLLIYDTSKLASGIPARFSGSGSGTDFTLTISSLEPEDVAVYYCFQGSVYPFTFGQGTKLEIKRGGGGSGGGGSGGGGSQVQLQESGPGLVKPSQTLSLTCTVSGGSISTSGMGVGWIRQHPGKGLEWIGHIWWDDDKRYNPALKSRVTISVDTSKNQFSLKLSSVTAADTAVYYCARMELWSYYFDYWGQGTLVTVSSLEGKPIPNPLLGLDSTGSGEDLKNVFPPEVAVFEPSKAEIAHTQKATLVCLATGFYPDHVELSWWVNGKEVHSGVCTDPQPLKEQPALNDSRYCLSSRLRVSATFWQNPRNHFRCQVQFYGLSENDEWTQDRAKPVTQIVSAEAWGRADCGITSASYHQGVLSATILYEILLGKATLYAVLVSALVLMAMVKRKDSRGRAKRSGSGATNFSLLKQAGDVEENPGPTSMALPVTALLLPLALLLHAARPDIQMTQSPASLSASVGETVTIICRASVNIYSYLAWYQQKQGKSPQLLVYNAKILAEGVPSRFSGSGSGTQFSLKINSLQPEDFGSYYCQHHYGTFTFGSGTKLEIKRGGGGSGGGGSGGGGSQVQLKESGPGLVAPSQSLSITCTISGFSLTSYGVHWVRQPPGKGLEWLVVIWSDGSTTYNSALKSRLSISKDNSKSQVFLKMNSLQTDDTAIYYCASHYGSTLAFASWGHGTLVTVSAATREQKLISEEDGSGIQNPDPAVYQLRDSKSSDKSVCLFTDFDSQTNVSQSKDSDVYITDKCVLDMRSMDFKSNSAVAWSNKSDFACANAFNNSIIPEDTFFPSSDVPCDVKLVEKSFETDTNLNFQNLSVIGFRILLLKVAGFNLLMTLRLWSSRAKRSGSGVKQTLNFDLLKLAGDVESNPGPSRGHMTEYKPTVRLATRDDVPRAVRTLAAAFADYPATRHTVDPDRHIERVTELQELFLTRVGLDIGKVWVADDGAAVAVWTTPESVEAGAVFAEIGPRMAELSGSRLAAQQQMEGLLAPHRPKEPAWFLATVGVSPDHQGKGLGSAVVLPGVEAAERAGVPAFLETSAPRNLPFYERLGFTVTADVEVPEGPRTWCMTRKPGA
B2: 030217-K05 (protein)
chain: MALPVTALLLPLALLLHAARPDEIVLTQSPATLSLSPGERATLSCSASSSVSYMHWYQQKPGQAPRLLIYDTSKLASGIPARFSGSGSGTDFTLTISSLEPEDVAVYYCFQGSVYPFTFGQGTKLEIKRGGGGSGGGGSGGGGSQVQLQESGPGLVKPSQTLSLTCTVSGGSISTSGMGVGWIRQHPGKGLEWIGHIWWDDDKRYNPALKSRVTISVDTSKNQFSLKLSSVTAADTAVYYCARMELWSYYFDYWGQGTLVTVSSLEGKPIPNPLLGLDSTGSGEDLKNVFPPEVAVFEPSKAEIAHTQKATLVCLATGFYPDHVELSWWVNGKEVHSGVCTDPQPLKEQPALNDSRYCLSSRLRVSATFWQNPRNHFRCQVQFYGLSENDEWTQDRAKPVTQIVSAEAWGRADCGITSASYHQGVLSATILYEILLGKATLYAVLVSALVLMAMVKRKDSRGRAKRSGSGATNFSLLKQAGDVEENPGPTSMALPVTALLLPLALLLHAARPDIVMTQSHKFMSTSVGDRVSVTCKASQNVGNNVAWYQQKPGQSPKVLIYSASYRYSGVPDRFTGSGSGTDFTLTISNVQSEDLAEYFCQQYNTYPFTFGSGTKLEIKGGGGSGGGGSGGGGSEVQLEESGGGLVQPGGSMKLSCVASGFTFSNYWMNWVRQSPEKGLEWVAEIRFKSHNYATHFAESVKGRFTISRDDSKSSVYLQMNNLRAEDTGIYYCTRRIGNSDYDWWYFDVWGAGTSVTVSSASTREQKLISEEDGSGIQNPDPAVYQLRDSKSSDKSVCLFTDFDSQTNVSQSKDSDVYITDKCVLDMRSMDFKSNSAVAWSNKSDFACANAFNNSIIPEDTFFPSSDVPCDVKLVEKSFETDTNLNFQNLSVIGFRILLLKVAGFNLLMTLRLWSSRAKRSGSGVKQTLNFDLLKLAGDVESNPGPSRGHMTEYKPTVRLATRDDVPRAVRTLAAAFADYPATRHTVDPDRHIERVTELQELFLTRVGLDIGKVWVADDGAAVAVWTTPESVEAGAVFAEIGPRMAELSGSRLAAQQQMEGLLAPHRPKEPAWFLATVGVSPDHQGKGLGSAVVLPGVEAAERAGVPAFLETSAPRNLPFYERLGFTVTADVEVPEGPRTWCMTRKPGA
B3: 040716-F05 (protein)
chain: MALPVTALLLPLALLLHAARPDEIVLTQSPATLSLSPGERATLSCSASSSVSYMHWYQQKPGQAPRLLIYDTSKLASGIPARFSGSGSGTDFTLTISSLEPEDVAVYYCFQGSVYPFTFGQGTKLEIKRGGGGSGGGGSGGGGSQVQLQESGPGLVKPSQTLSLTCTVSGGSISTSGMGVGWIRQHPGKGLEWIGHIWWDDDKRYNPALKSRVTISVDTSKNQFSLKLSSVTAADTAVYYCARMELWSYYFDYWGQGTLVTVSSLEGKPIPNPLLGLDSTGSGEDLKNVFPPEVAVFEPSKAEIAHTQKATLVCLATGFYPDHVELSWWVNGKEVHSGVCTDPQPLKEQPALNDSRYCLSSRLRVSATFWQNPRNHFRCQVQFYGLSENDEWTQDRAKPVTQIVSAEAWGRADCGITSASYHQGVLSATILYEILLGKATLYAVLVSALVLMAMVKRKDSRGRAKRSGSGATNFSLLKQAGDVEENPGPTSTMALPVTALLLPLALLLHAARPDIQMTQSPSSLSASLGERVSLTCRATQELSGYLSWLQQKPDGTIKRLIYAASTLDSGVPKRFSGNRSGSDYSLTISSLESEDFADYYCLQYAIYPYTFGGGTKLEIKGGGGSGGGGSGGGGSEVQLQQSGPELVKPGASVKMSCKASGYTFTSYFIHWVKQKPGQGLEWIGFINPYNDGSKYNEKFKGKATLTSDKSSSTAYMELSSLTSEDSAVYYCTRDDGYYGYAMDYWGQGTSVTVSSTREQKLISEEDGSGIQNPDPAVYQLRDSKSSDKSVCLFTDFDSQTNVSQSKDSDVYITDKCVLDMRSMDFKSNSAVAWSNKSDFACANAFNNSIIPEDTFFPSSDVPCDVKLVEKSFETDTNLNFQNLSVIGFRILLLKVAGFNLLMTLRLWSSRAKRSGSGVKQTLNFDLLKLAGDVESNPGPSRGHMTEYKPTVRLATRDDVPRAVRTLAAAFADYPATRHTVDPDRHIERVTELQELFLTRVGLDIGKVWVADDGAAVAVWTTPESVEAGAVFAEIGPRMAELSGSRLAAQQQMEGLLAPHRPKEPAWFLATVGVSPDHQGKGLGSAVVLPGVEAAERAGVPAFLETSAPRNLPFYERLGFTVTADVEVPEGPRTWCMTRKPGA
modifications: Synthetic polynucleotide encoding a SIR
B4: 040716-G02 (protein)
chain: MALPVTALLLPLALLLHAARPDEIVLTQSPATLSLSPGERATLSCSASSSVSYMHWYQQKPGQAPRLLIYDTSKLASGIPARFSGSGSGTDFTLTISSLEPEDVAVYYCFQGSVYPFTFGQGTKLEIKRGGGGSGGGGSGGGGSQVQLQESGPGLVKPSQTLSLTCTVSGGSISTSGMGVGWIRQHPGKGLEWIGHIWWDDDKRYNPALKSRVTISVDTSKNQFSLKLSSVTAADTAVYYCARMELWSYYFDYWGQGTLVTVSSLEGKPIPNPLLGLDSTGSGEDLKNVFPPEVAVFEPSKAEIAHTQKATLVCLATGFYPDHVELSWWVNGKEVHSGVCTDPQPLKEQPALNDSRYCLSSRLRVSATFWQNPRNHFRCQVQFYGLSENDEWTQDRAKPVTQIVSAEAWGRADCGITSASYHQGVLSATILYEILLGKATLYAVLVSALVLMAMVKRKDSRGRAKRSGSGATNFSLLKQAGDVEENPGPTSTMALPVTALLLPLALLLHAARPDTIVLTQSPASLAVSLGQRATISCRASESVDSYGNSFMHWYQQKPGQPPKLLIYLASNLESGVPARFSGSGSRTDFTLTIDPVEADDAATYYCQQNNYDPWTFGGGTKLEIKGGGGSGGGGSGGGGSEVQLQQSGPELVKPGASVKMSCKASGYTFTSYVMHWVKQKPGQGLEWIGYINPYNDGTKYNEKFKGKATLTSDTSSSTAYMELNSLTSEDSAVYFCARPIYFDNDYFDYWGQGTTLKVSSTREQKLISEEDGSGIQNPDPAVYQLRDSKSSDKSVCLFTDFDSQTNVSQSKDSDVYITDKCVLDMRSMDFKSNSAVAWSNKSDFACANAFNNSIIPEDTFFPSSDVPCDVKLVEKSFETDTNLNFQNLSVIGFRILLLKVAGFNLLMTLRLWSSRAKRSGSGVKQTLNFDLLKLAGDVESNPGPSRGHMTEYKPTVRLATRDDVPRAVRTLAAAFADYPATRHTVDPDRHIERVTELQELFLTRVGLDIGKVWVADDGAAVAVWTTPESVEAGAVFAEIGPRMAELSGSRLAAQQQMEGLLAPHRPKEPAWFLATVGVSPDHQGKGLGSAVVLPGVEAAERAGVPAFLETSAPRNLPFYERLGFTVTADVEVPEGPRTWCMTRKPGA
modifications: Synthetic polynucleotide encoding a SIR
B5: 063016-E01 (protein)
chain: MALPVTALLLPLALLLHAARPDEIVLTQSPATLSLSPGERATLSCSASSSVSYMHWYQQKPGQAPRLLIYDTSKLASGIPARFSGSGSGTDFTLTISSLEPEDVAVYYCFQGSVYPFTFGQGTKLEIKRGGGGSGGGGSGGGGSQVQLQESGPGLVKPSQTLSLTCTVSGGSISTSGMGVGWIRQHPGKGLEWIGHIWWDDDKRYNPALKSRVTISVDTSKNQFSLKLSSVTAADTAVYYCARMELWSYYFDYWGQGTLVTVSSLEGKPIPNPLLGLDSTGSGEDLKNVFPPEVAVFEPSEAEISHTQKATLVCLATGFYPDHVELSWWVNGKEVHSGVCTDPQPLKEQPALNDSRYCLSSRLRVSATFWQNPRNHFRCQVQFYGLSENDEWTQDRAKPVTQIVSAEAWGRADCGFTSESYQQGVLSATILYEILLGKATLYAVLVSALVLMAMVKRKDSRGRAKRSGSGATNFSLLKQAGDVEENPGPTSATMALPVTALLLPLALLLHAARPDVQLQESGPGLVKPSQSLSLTCTVTGYSITSDYTWNWIRQFPGNKLEWMGYITYSGSTSYNPSLKSRNSITRDTSKNQFFLQLNSVTTEDTATYYCARLGRRYTMDYWGQGTSVTVSSGGGGSGGGGSGGGGSDIQMTQSSSSFSVSLGDRVTITCMASEDIYIRLAWYQQKPGNAPRLLISAATSLETGVPSRFSGSGSGKDYTLSITSLQTEDVGTYYCQQYWSSPWTFGGGTKLEINTREQKLISEEDGSGIQNPDPAVYQLRDSKSSDKSVCLFTDFDSQTNVSQSKDSDVYITDKCVLDMRSMDFKSNSAVAWSNKSDFACANAFNNSIIPEDTFFPSPESSCDVKLVEKSFETDTNLNFQNLSVIGFRILLLKVAGFNLLMTLRLWSSRAKRSGSGVKQTLNFDLLKLAGDVESNPGPSRGHMTEYKPTVRLATRDDVPRAVRTLAAAFADYPATRHTVDPDRHIERVTELQELFLTRVGLDIGKVWVADDGAAVAVWTTPESVEAGAVFAEIGPRMAELSGSRLAAQQQMEGLLAPHRPKEPAWFLATVGVSPDHQGKGLGSAVVLPGVEAAERAGVPAFLETSAPRNLPFYERLGFTVTADVEVPEGPRTWCMTRKPGA
modifications: Synthetic Immune Receptor (SIR)

Test system: target antigen-expressing cell line
Experiment: Jurkat NFAT-GFP assay, coculture with target cell lines expressing the respective target antigen (summary Table 10A)
Format: cell-based, human
Set-up: key: The signs +/−, +, 2+ etc. after the name of the cell lines indicate the relative degree of positivity on the Jurkat-NFAT-GFP assay as measured by the % GFP positive cells; +: relative degree of positivity on the Jurkat-NFAT-GFP assay as measured by the % GFP positive cells; 2+: relative degree of positivity on the Jurkat-NFAT-GFP assay as measured by the % GFP positive cells
Details: relative % GFP positive cells; for NFAT-GFP ASSAY Positive Cell lines: NALM6: SIR-expressing Jurkat-NFAT-GFP cells cocultured with NALM6; for NFAT-GFP ASSAY Positive Cell lines: RAJI: SIR-expressing Jurkat-NFAT-GFP cells cocultured with RAJI
Outline: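 Stable SIR expression in Jurkat-NFAT-GFP cells by lentiviral transfer and puromycin selection; coculture with target cells (E:T approximately 1:2) for 4 to 18 hours; flow cytometric measurement of NFAT-driven GFP; scoring as positive when % GFP-positive cells exceeds that of parental reporter cells.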

Row | Molecule | NFAT-GFP ASSAY Positive Cell lines: NALM6 | NFAT-GFP ASSAY Positive Cell lines: RAJI | NFAT-GFP ASSAY Positive Cell lines: HEL (SIR-expressing Jurkat-NFAT-GFP cells cocultured with HEL)
1 | B1 | (+/−) | RAJI (2+), NALM6 | 
2 | B2 | (+) |  | 
3 | B3 |  | RAJI (+/−) | 
4 | B4 |  | RAJI (+/−) | 
5 | B5 |  | 2+ | +/−
